Results taken from patent publication US20210017279A1 (NANJING LEGEND BIOTECH, published 2021).

Key:
[1] = target: PD-1 in the PD-1 cell based reporter assay; assay: cell-based or functional assay
[2] = target: LAG-3 on Thaw-and-Use LAG-3 Effector cells; assay: cell-based or functional assay
[3] = target: T1, human LAG-3 expressed on CHO-K1 cells (human, UniProt P18627 29-525); assay: flow cytometry on CHO cells expressing LAG-3; Experiment 1
T1 construct: also called CHO-huLAG-3 cells; LAG-3 expressed on CHO cells
T1 sequence: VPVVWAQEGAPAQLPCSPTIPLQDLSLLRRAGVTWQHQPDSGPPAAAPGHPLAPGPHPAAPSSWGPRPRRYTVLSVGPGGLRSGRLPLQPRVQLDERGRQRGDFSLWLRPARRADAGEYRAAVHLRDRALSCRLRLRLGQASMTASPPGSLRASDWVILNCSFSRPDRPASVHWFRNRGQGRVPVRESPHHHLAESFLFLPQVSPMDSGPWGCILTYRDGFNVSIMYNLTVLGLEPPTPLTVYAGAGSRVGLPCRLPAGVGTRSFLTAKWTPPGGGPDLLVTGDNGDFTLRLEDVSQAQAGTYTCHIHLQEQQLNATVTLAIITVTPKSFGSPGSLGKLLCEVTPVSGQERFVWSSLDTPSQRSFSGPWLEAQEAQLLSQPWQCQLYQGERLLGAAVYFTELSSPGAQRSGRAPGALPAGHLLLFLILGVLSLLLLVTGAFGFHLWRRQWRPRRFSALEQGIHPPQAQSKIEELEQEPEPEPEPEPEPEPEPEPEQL

[4] = target: T2, PD-1 expressed on CHO cells (UniProt Q15116 25-288, limits assumed); assay: flow cytometry on CHO cells expressing PD-1; Experiment 1
T2 construct: whole, on cells; also called CHO-PD-1 cells
T2 sequence (Q15116 25-288 limits assumed): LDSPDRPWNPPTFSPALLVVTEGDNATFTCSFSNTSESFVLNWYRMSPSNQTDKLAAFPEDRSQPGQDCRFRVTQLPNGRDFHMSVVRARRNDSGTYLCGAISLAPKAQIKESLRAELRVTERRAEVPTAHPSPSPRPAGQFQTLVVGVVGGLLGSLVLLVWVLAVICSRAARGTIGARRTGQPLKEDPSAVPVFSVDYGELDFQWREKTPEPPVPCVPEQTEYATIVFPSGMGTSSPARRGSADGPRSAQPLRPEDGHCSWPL

[5] = target: T2, PD-1 expressed on CHO cells; assay: flow cytometry competition; blocks PD-L1 binding to CHO-PD-1 cells; Experiment 1
[6] = target: T3, LAG-3-Fc (human, UniProt P18627 29-450, biotinylated (in the blocking assays)); assay: flow cytometry competition; blocks LAG-3-Fc binding to MHC II on A375 cells; Experiment 1
T3 construct: Recombinant LAG-3-Fc (Acrobiosystems / R&D Systems); also called biotinylated LAG-3-Fc protein; not shown: Fc part
T3 sequence: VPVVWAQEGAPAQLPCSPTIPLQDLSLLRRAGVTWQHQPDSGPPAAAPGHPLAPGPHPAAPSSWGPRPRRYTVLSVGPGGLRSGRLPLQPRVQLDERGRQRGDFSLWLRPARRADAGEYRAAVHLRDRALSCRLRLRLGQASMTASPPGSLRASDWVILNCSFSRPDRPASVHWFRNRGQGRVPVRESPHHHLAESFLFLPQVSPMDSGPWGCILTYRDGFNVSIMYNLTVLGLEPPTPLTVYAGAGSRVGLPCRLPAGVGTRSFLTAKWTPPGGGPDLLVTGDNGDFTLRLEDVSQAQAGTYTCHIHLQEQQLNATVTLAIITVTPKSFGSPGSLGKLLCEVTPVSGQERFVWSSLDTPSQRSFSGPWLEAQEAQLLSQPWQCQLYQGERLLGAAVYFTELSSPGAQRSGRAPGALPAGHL

[7] = target: T4, Human LAG-3-His (human, UniProt P18627 29-450); assay: SPR (Biacore T200), as in Example 3; Experiment 1
T4 construct: Bought recombinant protein; also called Human LAG-3 protein (Acrobiosystem, 772-6BGF2-D5); not shown: His tag
T4 sequence: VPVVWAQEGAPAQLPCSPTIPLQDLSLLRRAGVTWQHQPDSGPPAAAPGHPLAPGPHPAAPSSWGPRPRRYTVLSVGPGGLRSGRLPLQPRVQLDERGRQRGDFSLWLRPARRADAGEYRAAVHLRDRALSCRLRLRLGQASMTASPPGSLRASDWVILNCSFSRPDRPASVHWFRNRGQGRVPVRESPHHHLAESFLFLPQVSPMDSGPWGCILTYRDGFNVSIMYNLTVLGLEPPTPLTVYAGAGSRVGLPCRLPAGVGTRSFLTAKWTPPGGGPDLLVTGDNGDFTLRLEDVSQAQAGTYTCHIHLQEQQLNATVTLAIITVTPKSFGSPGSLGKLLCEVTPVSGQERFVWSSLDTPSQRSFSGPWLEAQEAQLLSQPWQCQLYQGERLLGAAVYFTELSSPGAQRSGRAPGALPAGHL

[8] = target: Human PD-1 (human, UniProt Q15116 25-167, limits assumed); assay: SPR (Biacore T200), as in Example 3; Experiment 1
Human PD-1, sequence (Q15116 25-167 limits assumed): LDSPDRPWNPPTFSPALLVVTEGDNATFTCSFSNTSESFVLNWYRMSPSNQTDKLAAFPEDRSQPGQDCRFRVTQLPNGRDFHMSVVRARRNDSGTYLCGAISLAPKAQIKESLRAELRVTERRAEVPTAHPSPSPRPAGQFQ

PD-1 cell based reporter assay EC50 [1]: 7.62 nM | LAG-3 blockade reporter assay EC50 [2]: 4.6 nM | EC50 [3]: 0.883 nM | EC50 [4]: 7.91 nM | EC50 [5]: 6.66 nM | EC50 [6]: 1.8 nM | Kd [7]: 0.44 nM | Kd [8]: 1.8 nM
B1: BLP-1 (bispecific antibody, human IgG4 S228P, kappa)
heavy: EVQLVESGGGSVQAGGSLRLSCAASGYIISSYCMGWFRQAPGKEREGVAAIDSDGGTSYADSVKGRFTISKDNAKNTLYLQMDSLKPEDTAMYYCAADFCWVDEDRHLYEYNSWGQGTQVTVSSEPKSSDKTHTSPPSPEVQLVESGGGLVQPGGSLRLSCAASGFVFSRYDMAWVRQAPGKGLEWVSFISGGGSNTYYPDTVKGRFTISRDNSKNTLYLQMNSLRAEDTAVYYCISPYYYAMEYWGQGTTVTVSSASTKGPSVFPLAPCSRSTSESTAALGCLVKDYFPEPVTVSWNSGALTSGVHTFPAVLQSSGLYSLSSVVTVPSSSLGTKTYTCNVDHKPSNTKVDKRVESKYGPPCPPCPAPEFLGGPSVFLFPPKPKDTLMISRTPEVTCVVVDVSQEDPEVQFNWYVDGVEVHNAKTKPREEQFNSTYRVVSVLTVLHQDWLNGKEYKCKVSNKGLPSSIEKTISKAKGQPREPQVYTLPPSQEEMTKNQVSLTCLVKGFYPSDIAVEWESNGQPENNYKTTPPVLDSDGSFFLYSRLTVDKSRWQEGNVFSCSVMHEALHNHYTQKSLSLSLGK
light: DIQMTQSPSSVSASVGDRVTITCKASQDVDTAVAWYQQKPGKAPKLLIYWASTRHTGVPSRFSGSGSGTDFTLTISSLQPEDFATYYCQQYSTFPWTFGGGTKVEIKRTVAAPSVFIFPPSDEQLKSGTASVVCLLNNFYPREAKVQWKVDNALQSGNSQESVTEQDSKDSTYSLSSTLTLSKADYEKHKVYACEVTHQGLSSPVTKSFNRGEC
notes: also called PD-1 x LAG-3 proof-of-concept BABP
